Patent US20250312453A1

Target: MSLN (UniProt Q13421)
Experiment: BLI

MSLN, sequence (Q13421 other isoform, or with tags, fused parts or gaps limits assumed): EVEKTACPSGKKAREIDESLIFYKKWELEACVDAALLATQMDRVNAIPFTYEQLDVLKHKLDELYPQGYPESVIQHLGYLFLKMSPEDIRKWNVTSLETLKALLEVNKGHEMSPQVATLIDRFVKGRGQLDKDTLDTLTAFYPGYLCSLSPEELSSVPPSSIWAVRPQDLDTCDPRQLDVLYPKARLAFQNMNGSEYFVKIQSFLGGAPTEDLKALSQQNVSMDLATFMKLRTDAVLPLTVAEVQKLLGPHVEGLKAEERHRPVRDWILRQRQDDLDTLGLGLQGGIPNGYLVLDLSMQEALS

- Kd: 0.0114 µM
B1: nanobody NM5 (VHH)
VHH: DVQLQESGGGLVQAGGSLRLSCVGAGVSFSPYGIGWWRQAQGNQREWVASIYRSGSTNYEDFAKDRFTISRDNTKNTAYLQMNSLKPEDTAVYYCQILGTSYRGQGTQVTVSS
